Measurements: patent publication EP4786492A1 (Simcere Zaiming Pharmaceutical Co., Ltd., dated 2026)

Experiments:
[1] = molecular target: T1, monkey DLL3 on CHO K1-cyno DLL3 cells (cynomolgus monkey); assay: FACS, CHO K1-cyno DLL3 cells
T1 construct: also called monkey DLL3 recombinant cell line
T1 chain: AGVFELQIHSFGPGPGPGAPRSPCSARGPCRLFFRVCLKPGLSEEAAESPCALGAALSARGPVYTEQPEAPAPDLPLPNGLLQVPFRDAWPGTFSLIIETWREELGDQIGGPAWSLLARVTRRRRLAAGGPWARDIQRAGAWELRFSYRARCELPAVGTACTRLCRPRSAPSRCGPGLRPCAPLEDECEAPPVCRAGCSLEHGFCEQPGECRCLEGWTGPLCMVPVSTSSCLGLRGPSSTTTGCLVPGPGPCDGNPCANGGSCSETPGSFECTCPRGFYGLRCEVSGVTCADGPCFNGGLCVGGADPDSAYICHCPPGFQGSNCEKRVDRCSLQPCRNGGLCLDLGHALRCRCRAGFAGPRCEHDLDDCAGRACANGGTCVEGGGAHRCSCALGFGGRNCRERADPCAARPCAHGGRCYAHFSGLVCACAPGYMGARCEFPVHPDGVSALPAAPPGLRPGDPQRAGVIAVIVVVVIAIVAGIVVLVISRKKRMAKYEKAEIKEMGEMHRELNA

[2] = molecular target: T2, human DLL3-his protein (human, UniProt Q9NYJ7 27-492); assay: ELISA
T2 construct: also called human DLL3 protein; DLL3 antigen protein; not shown: His tag
T2 sequence: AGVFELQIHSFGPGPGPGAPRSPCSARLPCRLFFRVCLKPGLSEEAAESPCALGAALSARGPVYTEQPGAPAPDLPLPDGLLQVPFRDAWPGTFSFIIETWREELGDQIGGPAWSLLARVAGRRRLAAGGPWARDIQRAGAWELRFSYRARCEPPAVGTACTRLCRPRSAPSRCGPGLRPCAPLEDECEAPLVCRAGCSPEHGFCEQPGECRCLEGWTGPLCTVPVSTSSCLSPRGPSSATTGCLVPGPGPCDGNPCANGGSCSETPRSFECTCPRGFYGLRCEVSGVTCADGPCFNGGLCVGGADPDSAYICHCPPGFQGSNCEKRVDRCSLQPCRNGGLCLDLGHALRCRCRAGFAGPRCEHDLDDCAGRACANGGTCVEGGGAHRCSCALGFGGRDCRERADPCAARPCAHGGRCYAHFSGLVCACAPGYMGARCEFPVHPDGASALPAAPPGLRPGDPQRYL

[3] = molecular target: T3, human DLL3 on CHO-K1 hDLL3 cells (human, UniProt Q9NYJ7 27-492); assay: FACS, CHO-K1 hDLL3 cells
T3 construct: also called human DLL3 recombinant cell line
T3 sequence: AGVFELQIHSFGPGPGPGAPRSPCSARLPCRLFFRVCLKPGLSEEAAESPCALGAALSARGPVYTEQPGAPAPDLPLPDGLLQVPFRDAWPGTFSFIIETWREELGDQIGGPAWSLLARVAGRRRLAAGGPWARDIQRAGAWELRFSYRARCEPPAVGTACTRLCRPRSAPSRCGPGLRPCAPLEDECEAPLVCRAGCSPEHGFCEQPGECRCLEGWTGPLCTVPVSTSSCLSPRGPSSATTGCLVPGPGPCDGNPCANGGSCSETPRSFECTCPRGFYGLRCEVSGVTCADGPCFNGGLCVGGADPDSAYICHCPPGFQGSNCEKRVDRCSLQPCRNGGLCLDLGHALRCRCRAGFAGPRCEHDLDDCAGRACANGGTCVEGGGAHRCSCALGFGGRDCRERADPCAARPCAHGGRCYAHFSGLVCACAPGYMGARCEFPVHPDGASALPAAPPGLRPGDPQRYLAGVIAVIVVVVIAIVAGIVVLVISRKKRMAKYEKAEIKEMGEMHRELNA

[4] = molecular target: T4, mouse DLL3 on CHO K1-mDLL3 cells (mouse, UniProt O88516 33-490); assay: FACS, CHO K1-mDLL3 cells
T4 construct: also called mouse DLL3 recombinant cell line
T4 sequence: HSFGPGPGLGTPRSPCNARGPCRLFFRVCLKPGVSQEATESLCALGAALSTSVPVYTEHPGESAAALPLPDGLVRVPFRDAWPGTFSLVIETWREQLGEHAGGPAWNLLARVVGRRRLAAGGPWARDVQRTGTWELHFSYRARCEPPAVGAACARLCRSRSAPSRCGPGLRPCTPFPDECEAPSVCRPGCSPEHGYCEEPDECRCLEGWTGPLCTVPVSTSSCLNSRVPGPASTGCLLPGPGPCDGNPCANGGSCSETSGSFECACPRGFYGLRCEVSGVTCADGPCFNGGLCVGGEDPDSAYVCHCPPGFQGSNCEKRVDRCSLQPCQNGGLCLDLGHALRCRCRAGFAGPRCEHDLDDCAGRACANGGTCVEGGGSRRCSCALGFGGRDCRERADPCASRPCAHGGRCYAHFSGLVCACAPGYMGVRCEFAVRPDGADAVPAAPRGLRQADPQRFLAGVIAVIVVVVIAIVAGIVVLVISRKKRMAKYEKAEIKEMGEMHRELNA

[5] = molecular target: T5, human DLL3 endogenously expressed on SHP77 and NCI-H82 cells (human, UniProt Q9NYJ7 27-618); assay: FACS, SHP77 and NCI-H82 cells
T5 construct: whole, on cells; cells endogenously expressing DLL3; also called SHP77 cells; SHP-77 cells
T5 sequence (looked up): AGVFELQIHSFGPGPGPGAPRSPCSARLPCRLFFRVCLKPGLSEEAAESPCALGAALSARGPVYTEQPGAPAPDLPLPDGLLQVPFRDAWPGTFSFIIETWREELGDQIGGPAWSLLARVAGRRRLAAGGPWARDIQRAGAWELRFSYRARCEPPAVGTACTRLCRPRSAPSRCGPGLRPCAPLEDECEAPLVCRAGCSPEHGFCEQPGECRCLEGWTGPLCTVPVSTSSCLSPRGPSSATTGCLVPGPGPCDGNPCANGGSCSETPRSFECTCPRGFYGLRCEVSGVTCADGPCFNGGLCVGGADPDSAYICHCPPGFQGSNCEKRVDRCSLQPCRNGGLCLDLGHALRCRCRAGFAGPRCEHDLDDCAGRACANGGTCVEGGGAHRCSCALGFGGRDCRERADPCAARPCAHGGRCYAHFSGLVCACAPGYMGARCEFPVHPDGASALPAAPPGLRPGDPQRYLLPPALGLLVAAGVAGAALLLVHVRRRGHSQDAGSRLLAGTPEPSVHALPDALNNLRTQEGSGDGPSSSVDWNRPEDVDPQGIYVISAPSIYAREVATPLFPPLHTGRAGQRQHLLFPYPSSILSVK

Measured: binding result

B1: mab015 scFv-hFc (Fc fusion)
scFv (part 1 of 2): NIVMTQSPKSMSMSVGERVTLSCKASENVGTYVSWFQQKPEQSPKLLIYGASNRYTGVPDRFTGSGSATDFTLTISSVQAEDLADYHCGQFYSFPCTFGGGTKLEIK
scFv (part 2 of 2): EVKLEESGGGLVQPGGSMKLSCVASGITFSNFWMNWVRQSPEKGLEWVAQIRLKSDDYATHYAESVKGRFTISRDDSKGSVYLQMNNLRTEDTGIHYCTTGYYFDYWGQGTTLTVSS
notes: human-murine chimeric scFv-hFc, VL-linker-VH-human IgG1 Fc; not shown: linker; Fc fragment of human IgG1
binds: [1] | [2]

B2: Hab009VL1aVH1-hFc (Fc fusion)
scFv (part 1 of 2): DIVMTQSPLSLPVTPGEPASISCRASQTISDYLHWYLQKPGQSPQLLIKYASQSISGVPDRFSGSGSGSDFTLKISRVEAEDVGVYYCQQGHSFPLTFGQGTKLEIK
scFv (part 2 of 2): EVQLVQSGAEVKKPGASVKVSCKASGYTFTSYWMHWVRQAPGQRLEWMGTIYPGNSDTRYNQKFKDRVTITADTSASTAYMELSSLRSEDTAVYYCTRSYDYGDLDYWGQGTTVTVSS
notes: humanized mab009, VL-linker-VH-human IgG1 Fc; not shown: linker; human IgG1 Fc fragment
binds: all assays above

B3: Hab009VL2aVH1-hFc (Fc fusion)
scFv (part 1 of 2): DIVMTQSPLSLPVTPGEPASISCRASQTISDYLHWYLQKPGQSPRLLIKYASQSISGVPDRFSGSGSGTDFTLKISRVEAEDVGVYYCQQGHSFPLTFGQGTKLEIK
scFv (part 2 of 2): EVQLVQSGAEVKKPGASVKVSCKASGYTFTSYWMHWVRQAPGQRLEWMGTIYPGNSDTRYNQKFKDRVTITADTSASTAYMELSSLRSEDTAVYYCTRSYDYGDLDYWGQGTTVTVSS
notes: as for B2
binds: all assays above

B4: Hab013VL2VH2a-hFc (Fc fusion)
scFv (part 1 of 2): EIVLTQSPATLSLSPGERATLSCRASKSVSTSGFSYMHWYQQKPGQPPRLLIYLASNLESGIPARFSGSGSGTDFTLTISSLEPEDFAVYYCQHSRELPFTFGQGTKLEIK
scFv (part 2 of 2): EVQLVQSGAEVKKPGSSVKVSCKASGYAFSNYWINWVRQAPGQGLEWMGQINPGDGDTIYNSKFKGRVTITADKSTSTAYMELSSLRSEDTAVYYCEREGRNYGDFAYWGQGTTVTVSS
notes: humanized mab013, VL-linker-VH-human IgG1 Fc; not shown: linker; human IgG1 Fc fragment
not listed: [1]
binds: all other assays above

B5: mab010 scFv-hFc (Fc fusion)
scFv (part 1 of 2): DIQMTQSPASLSVSVGETVTITCRASENINSNLAWYQQKQGKSPQLLVYAATNLADGVPSRFSGSGSGTQFSLKISGLQSEDFGSYYCQHFWGLPWTFGGGTKLEIR
scFv (part 2 of 2): QVQLQQSGAELARPGASMKLSCKASGYTFTSYGISWVKQITGQGLEWIGEIFPRSGNTYDNENFRGKATLTADKSSSTAYLEVRSLTSEDSAVYFCARTTVFAPYYFDYWGQGTTLTVSS
notes: as for B1
binds: [1] | [2]

B6: Hab006VL1VH4-hFc (Fc fusion)
scFv (part 1 of 2): DIQMTQSPSSLSASVGDRVTITCRATKSISKYLAWYQQKPGKAPKLLIFSGSTLQSGVPSRFSGSGSGTDFTLTISSLQPEDFATYYCQQHHEYPYTFGGGTKVEIK
scFv (part 2 of 2): EVQLVQSGAEVKKPGASVKVSCKASGYTFTSYWMHWVRQAPGQRLEWMGVIDPSDSLANYNQEFKGRVTLTVDTSSSTAYMELSSLRSEDTAVYYCARDSTVVAPMDYWGQGTTVTVSS
notes: humanized mab006, VL-linker-VH-human IgG1 Fc; also called Hab006VL1VL4-hFc; not shown: linker; human IgG1 Fc fragment
binds: all assays above

B7: Hab006VL4VH1-hFc (Fc fusion)
scFv (part 1 of 2): DIVMTQSPDSLAVSLGERATINCRATKSISKYLAWYQQKPGQTNKLLIFSGSTLQSGVPDRFSGSGSGTDFTLTISSLQAEDVAVYYCQQHHEYPYTFGGGTKVEIK
scFv (part 2 of 2): EVQLVQSGAEVKKPGASVKVSCKASGYTFTSYWMHWVRQAPGQRLEWMGVIDPSDSLANYNQEFKGRVTITVDTSASTAYMELSSLRSEDTAVYYCARDSTVVAPMDYWGQGTTVTVSS
notes: humanized mab006, VL-linker-VH-human IgG1 Fc; also called Hab006VL4VL1-hFc; not shown: linker; human IgG1 Fc fragment
binds: all assays above

B8: Hab006VL4VH2-hFc (Fc fusion)
scFv (part 1 of 2): DIVMTQSPDSLAVSLGERATINCRATKSISKYLAWYQQKPGQTNKLLIFSGSTLQSGVPDRFSGSGSGTDFTLTISSLQAEDVAVYYCQQHHEYPYTFGGGTKVEIK
scFv (part 2 of 2): EVQLVQSGAEVKKPGASVKVSCKASGYTFTSYWMHWVRQAPGQRLEWMGVIDPSDSLANYNQEFKGRVTLTVDTSASTAYMELSSLRSEDTAVYYCARDSTVVAPMDYWGQGTTVTVSS
notes: humanized mab006, VL-linker-VH-human IgG1 Fc; also called Hab006VL4VL2-hFc; not shown: linker; human IgG1 Fc fragment
binds: all assays above

B9: mab009 scFv-hFc (Fc fusion)
scFv (part 1 of 2): DIVMTQSPATLSVTPGDRVSLSCRASQTISDYLHWYQQRSHESPRLLIKYASQSISGIPSRFSGSGSGSDFTLSINSVEPEDVGVYYCQNGHSFPLTFGAGTKLELK
scFv (part 2 of 2): EVQLQQSGTVLARPGASVKMSCKTSGYTFTSYWMHWVKQSPGQGLEWIGTIYPGNSDTRYNQKFKDKAYVTAVTSASTAYMELSSLTNEESAVYYCTRSYDYGDLDYWGQGTTLTVSS
notes: as for B1
binds: [2]
